Here are results for six molecules from publication PMC7793253, “CEP290 is essential for the initiation of ciliary transition zone assembly” (PLoS Biology, 2020).

T1: His-CEP290-N (aa 1–887) (Drosophila, UniProt Q9W0M1 1-887)
T1 construct: Drosophila centrosomal protein 290 (CEP290); Cloned into pET28a; also called CEP290 N-terminus; source: E. coli BL21 (DE3), purified (His resin)
T1 sequence (looked up): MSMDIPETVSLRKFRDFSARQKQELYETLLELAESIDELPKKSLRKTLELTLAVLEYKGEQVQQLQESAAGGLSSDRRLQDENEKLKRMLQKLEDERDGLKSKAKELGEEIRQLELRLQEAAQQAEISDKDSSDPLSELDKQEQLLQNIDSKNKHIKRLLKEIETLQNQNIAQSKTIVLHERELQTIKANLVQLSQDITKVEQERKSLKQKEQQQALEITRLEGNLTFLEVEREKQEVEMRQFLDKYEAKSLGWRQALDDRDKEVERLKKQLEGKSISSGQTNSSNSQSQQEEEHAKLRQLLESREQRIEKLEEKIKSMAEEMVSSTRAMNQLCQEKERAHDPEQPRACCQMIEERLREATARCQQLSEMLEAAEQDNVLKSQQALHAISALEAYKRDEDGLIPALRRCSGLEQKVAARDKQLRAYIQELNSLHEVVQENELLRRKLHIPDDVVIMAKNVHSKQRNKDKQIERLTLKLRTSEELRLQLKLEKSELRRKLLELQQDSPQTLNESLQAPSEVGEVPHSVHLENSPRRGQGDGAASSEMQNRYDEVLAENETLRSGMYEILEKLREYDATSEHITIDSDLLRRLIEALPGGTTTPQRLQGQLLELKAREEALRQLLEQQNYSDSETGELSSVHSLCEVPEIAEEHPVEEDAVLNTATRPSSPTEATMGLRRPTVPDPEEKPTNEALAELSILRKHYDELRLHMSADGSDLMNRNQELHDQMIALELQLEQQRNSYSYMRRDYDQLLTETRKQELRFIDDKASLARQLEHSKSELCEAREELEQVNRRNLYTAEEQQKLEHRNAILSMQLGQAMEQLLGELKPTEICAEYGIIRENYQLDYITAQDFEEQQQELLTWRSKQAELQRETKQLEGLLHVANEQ

B1: CEP290 N (aa 401–650) (domain or fragment, Drosophila, UniProt Q9W0M1 401-650, looked up)
chain: GLIPALRRCSGLEQKVAARDKQLRAYIQELNSLHEVVQENELLRRKLHIPDDVVIMAKNVHSKQRNKDKQIERLTLKLRTSEELRLQLKLEKSELRRKLLELQQDSPQTLNESLQAPSEVGEVPHSVHLENSPRRGQGDGAASSEMQNRYDEVLAENETLRSGMYEILEKLREYDATSEHITIDSDLLRRLIEALPGGTTTPQRLQGQLLELKAREEALRQLLEQQNYSDSETGELSSVHSLCEVPEIAE
notes: Drosophila centrosomal protein 290 (CEP290); This construct is not described in the methods; probably His-tagged and made in E. coli like His-CEP290-N
B2: GST-DZIP1-C (aa 294–737) (domain or fragment, Drosophila, UniProt Q9VC70 294-737, looked up)
chain: DINKRLEGLSHALEQSKQASASTPPLEDRVATPCLEDLERILTEKVAEIGKVSAHRLEEVVYHLEEGYKEKLGALERELKQLSVQKVQPEPVQTVPVASKIPKPVVRKEETNIDRIRKQVESEFLKQKHDDDTYSIEEAPRKGSEKPFPQLVTQVQVVEKEQPSAGSSDSNPTYTKSPREPAPNKQETKEATDVSDSLSQEETENEEERSLTEEEGTDVPTSGSEAAREDPTPKTIKPSGRIIKSPQKPLTRKDARKMVNRKLMSHGFDMKSKGISHNSLKRVNSELTEHRNKLKLQHPHFYATRNRIRKFVEKLCSAKFSERAEMLLKHKSPLKPMEVPGKGIPRSAISEKSEEDIASSQGEEQTDEQTDSSEQQTRSPSPQRLVSRDFKARLEEILVKPAATIRGASKSSLSSRPVPLPRKRVMFNTTEDGKSFNDSDDNLK
notes: Cloned into pGEX-4T-1; also called C-terminus of DZIP1; source: E. coli BL21 (DE3), purified (Glutathione Sepharose)
B3: GST-DZIP1-N (aa 1–293) (domain or fragment, Drosophila, UniProt Q9VC70 1-293, looked up)
chain: MGFKGKYPQMVRETGFKLRQYRDGPLDWRLMGSYETERILREQNFELVDKALTHLSEAPLGTVLETHILDSGIAKYFVMSQYAIQYLMCCRTYLDECVTDLKEAHTTAQEEIATLRKSLSESNNEVVQLHKRITQIEAIREVVYPCHLCTKNFISNEALNVHIGRKHRVASPPSLTSATGKEKDRDKATDVHLINTIKMELEIKQLKERLNAAERNIKERSTGSKRVSPRQEQRHVGIQSNLAEPKEKDEDSGEARQSEASERKEQLTGLAERLSNFEEWQTQLKQSNEQFIQ
notes: Cloned into pGEX-4T-1; also called N-terminus of DZIP1; source: E. coli BL21 (DE3), purified (Glutathione Sepharose)
B4: CEP290 N (aa 651–887) (domain or fragment, Drosophila, UniProt Q9W0M1 651-887, looked up)
chain: EHPVEEDAVLNTATRPSSPTEATMGLRRPTVPDPEEKPTNEALAELSILRKHYDELRLHMSADGSDLMNRNQELHDQMIALELQLEQQRNSYSYMRRDYDQLLTETRKQELRFIDDKASLARQLEHSKSELCEAREELEQVNRRNLYTAEEQQKLEHRNAILSMQLGQAMEQLLGELKPTEICAEYGIIRENYQLDYITAQDFEEQQQELLTWRSKQAELQRETKQLEGLLHVANEQ
notes: as for B1
B5: His-Rab8 (natural protein, Drosophila, UniProt O18338 1-207, looked up)
chain: MAKTYDYLFKLLLIGDSGVGKTCILFRFSEDAFNTTFISTIGIDFKIRTIELDNKKIKLQIWDTAGQERFRTITTAYYRGAMGIMLVYDITQEKSFENIKNWIRNIEENASADVEKMLLGNKCELTDKRQVSKERGEQLAIEYGIKFMETSAKASINVEEAFLTLASDIKAKTEKRMEANNPPKGGHQLKPMDSRTKDSWLSRCSLL
notes: Drosophila Rab8; Cloned into pET28a; source: E. coli BL21 (DE3), purified (His resin)
B6: His-Rab8^T22N (natural protein, Drosophila, UniProt O18338 1-207, looked up)
chain: B5 chain with T22N
notes: Drosophila Rab8 with T22N; Cloned into pET28a; also called Rab8^GDP-mimicking mutant; source: E. coli BL21 (DE3), purified (His resin)

Changes are numbered by the printed parent chain. In names and notes the source's numbering stands.

Common to all, as to test: pull-down; GST pull-down: purified His-tagged proteins incubated with GST, GST-DZIP1-N or GST-DZIP1-C in 25 mM Tris-HCl pH 7.4, 150 mM NaCl, 0.5% Triton X-100, 1 mM dithiothreitol, 10% glycerol, overnight at 4°C; blot with anti-His antibodies
Holding throughout (conditions): both partners purified

The test “GST-DZIP1-N (aa 1–293)” addresses B3.
The next test addresses T1, His-CEP290-N (aa 1–887).
For the test “GST-DZIP1-C (aa 294–737)”, the target named is B2.

For B1, the binding result with GST-DZIP1-N (aa 1–293) is “binds”. On to B2, for which, in the test with His-CEP290-N (aa 1–887), the binding result is reported as “binds”.

For B3, the binding result with His-CEP290-N (aa 1–887) was “binds”.

With B4, the binding result in the test with GST-DZIP1-N (aa 1–293) and with GST-DZIP1-C (aa 294–737) was “binds” throughout. In the case of B5, in the test with GST-DZIP1-N (aa 1–293), the binding result is “binds”. Same read-out and setting: as for B6, the entry is “binds”.
